Measured values from patent US20250154268A1 (NONA BIOSCIENCES SUZHOU, published 2025).
Substitutions are numbered along the chain they refer to. Names may count otherwise. Where two headings read alike, the source gives them in different places.

How the values were obtained:
human CD25 [1] = target: T1, human CD25 (human, UniProt P01589 22-272); test: flow cytometry, Karpas299 cells
T1 construct: whole, on cells; Always presented on cells; also called huCD25; IL2Rα
T1 sequence (looked up): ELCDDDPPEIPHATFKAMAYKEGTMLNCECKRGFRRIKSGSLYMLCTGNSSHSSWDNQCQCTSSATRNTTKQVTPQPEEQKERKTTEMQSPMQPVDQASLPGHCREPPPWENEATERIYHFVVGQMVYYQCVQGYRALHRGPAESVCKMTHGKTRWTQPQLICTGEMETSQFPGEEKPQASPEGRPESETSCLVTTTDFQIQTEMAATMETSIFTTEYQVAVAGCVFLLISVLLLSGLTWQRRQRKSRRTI

human CD25 [2] = target: T1, human CD25; test: flow cytometry, SU-DHL-1 cells
Experimental: (§1) Briefly, the CHOK1-huCD25 cells and HEK293-cynoCD25 cells were digested, the SU-DHL-1 cells, Karpas299 cells, Treg cells and Teff cells were collected, and the cells were resuspended in PBS containing 2% BSA. The cells were adjusted to a cell density of 1×10⁶ cells/mL, respectively. […] The cells were incubated at 4° C. for 1 hour in the dark. After the incubation, the cells were rinsed twice by adding pre-chilled PBS containing 2% BSA at 100 μL/well, and centrifuged at 500 g at 4° C. for 5 minutes, and the supernatant was discarded. […] The cells were washed twice by adding pre-chilled PBS containing 2% BSA at 100 μL/well, and centrifuged at 500 g at 4° C. for 5 minutes, and the supernatant was discarded. Finally, the cells were resuspended in pre-chilled PBS containing 2% BSA at 200 μL/well, and the fluorescence signal values were read using a BD CantoII flow cytometer.

human CD25 [3] = target: T1, human CD25; test: flow cytometry, SU-DHL-1 cells; remark: listed apart in the source
Experimental: as §1

human CD25 [4] = target: T1, human CD25; test: flow cytometry, Karpas299 cells; remark: listed apart in the source
cynomolgus monkey CD25 [5] = target: T2, cynomolgus monkey CD25 (cynomolgus monkey, UniProt H6WS54 22-272); test: flow cytometry, HEK293-cynoCD25 cells
T2 construct: whole, on cells; also called cynoCD25
T2 sequence: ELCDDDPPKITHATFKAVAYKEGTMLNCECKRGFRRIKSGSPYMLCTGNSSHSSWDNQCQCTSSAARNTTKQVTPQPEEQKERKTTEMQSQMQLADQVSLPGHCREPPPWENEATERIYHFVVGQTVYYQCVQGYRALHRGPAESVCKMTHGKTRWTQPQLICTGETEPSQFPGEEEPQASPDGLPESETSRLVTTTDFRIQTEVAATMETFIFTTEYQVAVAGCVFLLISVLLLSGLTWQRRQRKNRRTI
Experimental: as §1

human CD25 [6] = target: T1, human CD25; test: flow cytometry, SU-DHL-1 cells; remark: listed apart in the source
Experimental: as §1

cynomolgus monkey CD25 [7] = target: T2, cynomolgus monkey CD25; test: flow cytometry, HEK293-cynoCD25 cells; remark: listed apart in the source
Experimental: as §1

human CD25 [8] = target: T1, human CD25; test: flow cytometry, Karpas299 cells; remark: listed apart in the source
Experimental: as §1

human CD25 [9] = target: T1, human CD25; test: flow cytometry, Karpas299 cells; remark: listed apart in the source
cynomolgus monkey CD25 [10] = target: T2, cynomolgus monkey CD25; test: flow cytometry, HEK293-cynoCD25 cells; remark: listed apart in the source
Experimental: as §1

human CD25 [11] = target: T1, human CD25; test: flow cytometry, SU-DHL-1 cells; remark: listed apart in the source
Experimental: as §1

human CD25 [12] = target: T1, human CD25; test: flow cytometry, SU-DHL-1 cells; remark: listed apart in the source
Experimental: as §1

human CD25 [13] = target: T1, human CD25; test: flow cytometry, Karpas299 cells; remark: listed apart in the source
Experimental: as §1

human CD25 [14] = target: T1, human CD25; test: flow cytometry, CHOK1-huCD25 cells
Experimental: as §1

cynomolgus monkey CD25 [15] = target: T2, cynomolgus monkey CD25; test: flow cytometry, HEK293-cynoCD25 cells; remark: listed apart in the source
Experimental: as §1

B1: PR006928 (antibody, human IgG1, kappa, V domains shown)
VH: QVQLVQSGGGVVQPGRSLRLSCAASGFTFSNYDMHWVRQAPGKGLEWVAVIWYDGINKHYTDSVKGRFTMSRDNFKNTLHLQMNSLRAEDTAIYYCAREGAGDAFDIWGQGTMVTVSS
VL: DIQMTQSPSTLSASVGDRVTITCRASQSFDNWLAWYQQKPGKAPKLLIYKASSLESGVPSRFSGSGSGTEFTLTISSLQPDDFATYYCQQYNSYSTFGQGTRLEIKR
notes: Fully human recombinant IgG1, kappa; also called 150G7E2
Human CD25 [1]
  EC50: 20 nM
  Maximum MFI: 10600 MFI
Human CD25 [2]
  EC50: 1.85 nM
  Maximum MFI: 34700 MFI

B2: PR007181 (antibody, human IgG1, kappa, V domains shown)
VH: QVQLQESGPGLVKPSGTLSLTCAVSGGSISSSNWWSWVRQSPGKGLEWIGEIYHSGSTNYNPSLKSRVTISVDKSKNQFSLKLSSVTAADTAVYYCARDRLVAVAGIFDYWGQGTLVTVSS
VL: EIVMTQSPATLSVSPGERATFSCRASQTVSSDLAWYQQKPGQAPRLLIYGASTRATGIPARFSGSGSGTEFTLTISSLQSEDFAFYYCQQSNDWPYTFGQGTKLEIKR
notes: Fully human recombinant IgG1, kappa; also called 111C1D7
Human CD25 [1]
  EC50: 5.81 nM
  Maximum MFI: 10200 MFI
Human CD25 [2]
  EC50: 1.68 nM
  Maximum MFI: 32500 MFI

B3: PR008014 (antibody, human IgG1, kappa, V domains shown)
VH: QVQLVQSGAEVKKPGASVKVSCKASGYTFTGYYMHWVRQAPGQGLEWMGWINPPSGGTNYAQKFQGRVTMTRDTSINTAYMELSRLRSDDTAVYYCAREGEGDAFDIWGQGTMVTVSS
VL: DFQMTQSPSTLSASVGDRVTITCRASQSISSWLAWYQQKPGKAPKLLIYEASSLKSGVPSRFSGSESGTEFTLTISSLQPDDFATYYCHQYLSYSTFGQGTKVEIKR
notes: PTM variant of PR006931 (VH: N54P, S60Y); human IgG1
Human CD25 [3]
  EC50: 1.36 nM
  Maximum MFI: 32800 MFI
Human CD25 [4]
  EC50: 30 nM
  Maximum MFI: 9510 MFI
Cynomolgus monkey CD25 [5]
  EC50: 1.63 nM
  Maximum MFI: 31500 MFI

B4: PR006984 (antibody, human IgG1, kappa, V domains shown)
VH: QVHLVESGGGVVQPGRSLRLSCAASGFTFSKYDMHWVRQAPGKGLEWVAVVWFDGINKSYIDSVRGRFTISRDNSKSTLYLQMNSLRDDDTAVYYCAREGVGDAFDIWGQGAMVTVSS
VL: B1 VL with F29I, D30S, N31S, G66E, S76T, D81N
notes: Fully human recombinant IgG1, kappa; also called 180F6E8
Human CD25 [1]
  EC50: 55 nM
  Maximum MFI: 8720 MFI
Human CD25 [2]
  EC50: 6 nM
  Maximum MFI: 35300 MFI

B5: PR006931 (antibody, human IgG1, kappa, V domains shown)
VH: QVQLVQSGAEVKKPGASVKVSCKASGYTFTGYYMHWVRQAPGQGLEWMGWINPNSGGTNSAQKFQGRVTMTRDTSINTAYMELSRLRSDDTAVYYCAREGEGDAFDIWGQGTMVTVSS
VL: B3 VL with L92N
notes: Fully human recombinant IgG1, kappa; also called 171B2D12
Human CD25 [6]
  EC50: 8.48 nM
  Maximum MFI: 33700 MFI
Cynomolgus monkey CD25 [7]
  EC50: 6.25 nM
  Maximum MFI: 152000 MFI
Human CD25 [8]
  EC50: 40 nM
  Maximum MFI: 9450 MFI

B6: PR006927 (antibody, human IgG1, kappa, V domains shown)
VH: QVQLQESGPGLVKPSETLSLTCTVSGGSIRSYYWSWIRQPPGKGLEWIGYIYYSGSTNYNPSLKSRVTISVDTSKNQFSLKLSSVTAADTAVYYCARDILTGYSDWFFDLWGRGTLVTVSS
VL: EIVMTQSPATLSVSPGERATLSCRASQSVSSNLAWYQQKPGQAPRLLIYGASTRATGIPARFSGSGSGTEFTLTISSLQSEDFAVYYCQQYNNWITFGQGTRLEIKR
notes: Fully human recombinant IgG1, kappa; also called 113D5A1
Human CD25 [6]
  EC50: 4.68 nM
  Maximum MFI: 27300 MFI
Cynomolgus monkey CD25 [7]
  EC50: 17.5 nM
  Maximum MFI: 90100 MFI
Human CD25 [8]
  EC50: 20.3 nM
  Maximum MFI: 10000 MFI

B7: PR006122 (antibody, human IgG1, kappa, V domains shown)
VH: QVQLVESGGGVVQPGRSLRLSCAASGFTFSSYYMHWVRQAPGKGLEWVAVIWYDGSNKYYADSVKGRFTISRDNSKNTLYLQMNSLRAEDTAVYYCAGAGKGELPFDYWGQGTLVTVSS
VL: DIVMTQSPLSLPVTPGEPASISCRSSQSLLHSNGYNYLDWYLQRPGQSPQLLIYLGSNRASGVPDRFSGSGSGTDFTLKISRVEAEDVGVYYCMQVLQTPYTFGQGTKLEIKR
notes: Fully human recombinant IgG1, kappa; also called 189F2G11
Human CD25 [6]
  EC50: 1.53 nM
  Maximum MFI: 43900 MFI
Cynomolgus monkey CD25 [7]
  EC50: 1.63 nM
  Maximum MFI: 82000 MFI
Human CD25 [8]
  EC50: 1.21 nM
  Maximum MFI: 18300 MFI

B8: PR006932 (antibody, human IgG1, kappa, V domains shown)
VH: QVQLVQSGAEVKKPGASLKVSCKASGYTFTGYYMHWVRQAPGQGLEWMGWINSNSGDKRYAQKFQGRVTVTRDTSISTAYMELSRLRSDDTAVYYCAREGAGDAFDFWGQGTMVIVSS
VL: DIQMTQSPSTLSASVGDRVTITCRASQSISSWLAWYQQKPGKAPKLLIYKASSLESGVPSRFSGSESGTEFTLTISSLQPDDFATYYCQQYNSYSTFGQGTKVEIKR
notes: Fully human recombinant IgG1, kappa; also called 184B11A4
Human CD25 [6]
  EC50: 3.51 nM
  Maximum MFI: 34400 MFI
Cynomolgus monkey CD25 [7]
  EC50: 3.92 nM
  Maximum MFI: 151000 MFI
Human CD25 [8]
  EC50: 2.91 nM
  Maximum MFI: 12000 MFI

B9: PR006769 (antibody, human IgG1, kappa, V domains shown)
VH: QVQLQGSGPGLVKPSGTLSLTCAVSPGSISSSNWWNWVRQPPGKGLEWIGEIYHRGSTNYNPSLKSRVTISVDKSKNQFSLKLSSVTAADTAVYYCTHYYYDSSGYYYGYWGQGTLVTVSS
VL: DIVMTQSPLSLPVTPGEPASISCRSSQSLLHRDVYNYVDWYLQKPGQSPQLLIYLGSNRASGVPDRFSGSGSGTDFTLKISRVEAEDVGVYYCMQALQTPLTFGGGTKVEIKR
notes: PTM variant of PR005436 (VH:D26P); human IgG1
Human CD25 [9]
  EC50: 39.3 nM
  Maximum MFI: 16800 MFI
Cynomolgus monkey CD25 [10]
  EC50: 3.53 nM
  Maximum MFI: 132000 MFI
Human CD25 [11]
  EC50: 2.94 nM
  Maximum MFI: 32200 MFI

B10: PR006771 (antibody, human IgG1, kappa, V domains shown)
VH: B9 VH
VL: B9 VL with D33R, V34G
notes: as for B9
Human CD25 [9]
  EC50: 40 nM
  Maximum MFI: 8970 MFI
Cynomolgus monkey CD25 [10]
  EC50: 5.35 nM
  Maximum MFI: 136000 MFI
Human CD25 [11]
  EC50: 4.56 nM
  Maximum MFI: 29800 MFI

B11: PR005436 (antibody, human IgG1, kappa, V domains shown)
VH: B9 VH with P26D
VL: B9 VL with V34G
notes: Fully human recombinant IgG1, kappa; also called 310D11F6
Human CD25 [12]
  EC50: 1.4 nM
  Maximum MFI: 33300 MFI
Human CD25 [13]
  EC50: 67.2 nM
  Maximum MFI: 32100 MFI
Human CD25 [14]
  EC50: 0.86 nM
  Maximum MFI: 49200 MFI
Cynomolgus monkey CD25 [15]
  EC50: 1.75 nM
  Maximum MFI: 189000 MFI

B12: PR005433 (antibody, human IgG1, kappa, V domains shown)
VH: EVQLLESGGGLVQPGGSLRLSCAASGFTFSSYAMSWVRQAPGKGLEWVSTLSGRGGSTYYADSVKGRFTISRDNSNNTLYLQMNSLRAEDTAVYYCAKEGYSSSYYEYFQHWGQGTLVTVSS
VL: EIVLTQSPATLSVSPGERATLSCRASQSISSNLAWYQQKPGQAPRLLIYGASTRATGIPARFSGSGSGTEFTLTISSLQSEDFAVYSCQQYNYWPLTFGGGTKVEIKR
notes: Fully human recombinant IgG1, kappa; Clone No. 308B6F9 is printed for both PR005433 and PR005435; also called 308B6F9
Human CD25 [12]
  EC50: 4.9 nM
  Maximum MFI: 44300 MFI
Human CD25 [13]
  EC50: 4.31 nM
  Maximum MFI: 24900 MFI
Human CD25 [14]
  EC50: 8.19 nM
  Maximum MFI: 22400 MFI
Cynomolgus monkey CD25 [15]
  EC50: 3.73 nM
  Maximum MFI: 60500 MFI

B13: PR005435 (antibody, human IgG1, kappa, V domains shown)
VH: QVQLQQSGPGLVKPSQTLSLTCAVSGDRVSNINAAWNWIRQSPSRGLEWLGRTYYRSKWYNDYAVSVKSRISINLDTSKDQFSLQLNPVTPEDTAVYYCARDPWEAFDYWGQGTLVTVSS
VL: B12 VL with L4M, I29V, G50A, S87F, Y93D, P95S, L96I, G100Q, K103R, V104L
notes: as for B12
Human CD25 [12]
  EC50: 97.6 nM
  Maximum MFI: 19500 MFI
Human CD25 [13]
  EC50: 65.4 nM
  Maximum MFI: 16200 MFI
Human CD25 [14]
  EC50: 15.2 nM
  Maximum MFI: 31700 MFI
Cynomolgus monkey CD25 [15]
  EC50: 4.15 nM
  Maximum MFI: 154000 MFI

B14: PR006930 (antibody, human IgG1, kappa, V domains shown)
VH: B12 VH with G26E, L51I, R54S, S57N, K65E, N76K, G100A, Y105W
VL: B12 VL with L4M, I29V, S31D, N32T, S87Y, K107R
notes: Fully human recombinant IgG1, kappa; also called 170H1E12
Human CD25 [6]
  EC50: 2.2 nM
  Maximum MFI: 32000 MFI
Cynomolgus monkey CD25 [7]
  EC50: 3.25 nM
  Maximum MFI: 146000 MFI
Human CD25 [8]
  EC50: 2.12 nM
  Maximum MFI: 16400 MFI
